Reference: US6602854B1, “Branched multimeric Apo A-I agonist compounds” (priority 1997, dated 2003)

Legend:
[1] = Pharmacokinetics in mice (radiolabeled peptide, intraperitoneal); assay type: in vivo; settings: for HALF-LIFE: 2.5 mg/kg intraperitoneal
Method: In each experiment, 2.5 mg/kg radiolabeled peptide was injected intraperitoneally into mice which were fed normal mouse chow or the atherogenic Thomas-Harcroft modified diet (resulting in severely elevated VLDL and IDL cholesterol). Blood samples were taken at multiple time intervals for assessment of radioactivity in plasma.

[2] = Circular dichroism: degree of helicity (free, SUVs, micelles, TFE); settings: for % Helicity Free: free in buffer
Summary of the method: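 Far-UV CD (190–260 nm) at 37 °C on 5 μM peptide in 5 mM phosphate pH 7.4, either free, with EPC:Chol 20:1 SUVs (Ri 30 or 50), with lysophosphatidylcholine micelles (Ri 100), or in 90% TFE. Helicity derived from mean residue ellipticity at 222 nm or CONTIN fitting to reference spectra.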

HepG2 hepatoma cells = assay: Cholesterol efflux; assay type: cell-based; settings: peptide:DMPC complexes 1:2 (w:w), 1-25 μg/ml, 24 hours; compared with native human ApoA-I
Method: HepG2 hepatoma cells were plated into 6-well culture dishes and grown to confluence. Cells were labeled with ^3H-cholesterol by drying the cholesterol, then adding 1% bovine serum albumin (BSA) in phosphate buffered saline (PBS), sonicating the solution, and adding 0.2 ml labeling solution and 1.8 ml growth medium to the cells, so that each well contained 2 μCi of radioactivity. Cells were incubated for 24 h with the labeling medium.
Peptide (or protein):DMPC complexes were prepared at a 1:2 peptide (or protein):DMPC ratio (w:w). […] Peptide or protein concentration in the final solution was 1 mg/ml.
Labeling media was removed from the cells and the cells were washed with PBS prior to addition of complexes. 1.6 ml of growth medium was added to each well, followed by peptide (or protein): DMPC complex and sufficient PBS to bring the final volume to 2 ml per well. The final peptide or ApoA-I concentrations were 1, 2.5, 5, 7.5 and 25 μg/ml medium. After 24 hours of incubation at 37° C., the medium was removed, and the cells washed with 2 ml of 1% BSA/PBS, followed by 2 washes with 2 ml each of PBS. The amount of ^3H-cholesterol effluxed into the medium was determined by liquid scintillation counting.

In the case of PVLDLFRELLNELLEALKQKLK [peptide 4], the “maximum serum concentration reached” value ([1]; ApoE knockout mice) is reported as “^5The maximum serum concentration reached was 17.4% injected % injected cpm”, the “time of maximum serum concentration following injection” value ([1]; ApoE knockout mice) is reported as “cpm at 1.46 hours following injection. r^2 = 0.973” and the HALF-LIFE ([1]; ApoE knockout mice) is reported as 14.2^5 hours. For the same sequence, the “maximum serum concentration reached” value ([1]; C57BL/6 mice, normal diet) was “^1The maximum serum concentration reached was 25.7% injected % injected cpm”, the “time of maximum serum concentration following injection” value ([1]; C57BL/6 mice, normal diet) was “cpm at 1.9 hours following injection. r^2 = 0.960” and the HALF-LIFE ([1]; C57BL/6 mice, normal diet) was 5.72^1 hours. The “time of maximum serum concentration following injection” value ([1]; C57Bl/6 mice, high fat diet) was “cpm at 2.98 hours following injection. r^2 = 0.973”, the HALF-LIFE ([1]; C57Bl/6 mice, high fat diet) was 5.98^2 hours and the “association with plasma components in mice (in words)” value ([1]; mice, intraperitoneal) was “associated with the HDL component”. For the same sequence, the “time the peptide remained stable in the circulation” value ([1]; mice, intraperitoneal) was “at least 6 hours”, the “% helicity in the presence of SUVs” value [2] was 97% and the “% helicity in the presence of TFE” value [2] was 94%. The “% Helicity Bound (micelles)” value ([2]; peptide concentration 0.15 μM) was 65%, the “% Helicity Free” value ([2]; peptide concentration 0.15 μM) was 42% and the “% Helicity Bound (micelles)” value ([2]; peptide concentration 0.40 μM) was 68%. For the same sequence, the “% Helicity Free” value ([2]; peptide concentration 0.40 μM) was 58%, the “% Helicity Free” value ([2]; peptide concentration 2.0 μM) was 63% and the “% Helicity Bound (micelles)” value ([2]; peptide concentration 5.0 μM) was 95%. For the same sequence, the “% Helicity Free” value ([2]; peptide concentration 5.0 μM) was 80%, the “% Helicity TFE” value ([2]; peptide concentration 50.0 μM) was 94% and the “He (%) free” value ([2]; percent helicity of free, unbound peptide) was 80%. The “He (%) SUVs” value ([2]; percent helicity of peptide-SUV complexes) was 97%, the “He (%) TFE” value ([2]; percent helicity of peptide-TFE solution) was 94% and the “He (%) mics” value ([2]; percent helicity of peptide-micelle complexes) was 95%. For the same sequence, the “stability of the α-helical structure with temperature” value ([2]; temperature range of 5-45° C., data not shown) was “completely stable” and the “cholesterol efflux (in words)” value (HepG2 hepatoma cells) was “more efficient at cholesterol efflux than ApoA-I”.
